Measured values as given in PMC5014688 (Structure (London, England : 1993), 2016).
Blank lines part the entries; values can stand above or below the molecule they belong to. Ends that are not written are not given here. * marks the point of attachment. Crotonyl(E) = C/C=C/C(=O)*

What was measured:
[1] = target: Histone H3K4cr peptide (Homo sapiens) (UniProt P68431); experiment: ITC; details: cited from earlier work
[2] = target: Histone H4K5cr/K8cr peptide (Homo sapiens) (UniProt P62805); details: cited from earlier work
[3] = target: Histone H4K5ac/K8ac peptide (Homo sapiens) (UniProt P62805); details: cited from earlier work
[4] = target: T1, AF9 YEATS domain (Homo sapiens, UniProt P42568); experiment: 2D 1H-15N HSQC NMR binding to AF9 YEATS domain; details: 30°C, H3 peptide added to AF9 YEATS domain
T1 sequence (P42568 1-138): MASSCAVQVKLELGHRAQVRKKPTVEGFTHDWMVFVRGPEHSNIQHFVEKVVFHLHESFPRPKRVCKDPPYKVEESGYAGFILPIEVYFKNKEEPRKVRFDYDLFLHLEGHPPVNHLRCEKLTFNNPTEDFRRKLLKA

[5] = target: T2, AF9 YEATS domain (residues 1–138) (human, UniProt P42568 1-138); experiment: ITC
T2 sequence (looked up): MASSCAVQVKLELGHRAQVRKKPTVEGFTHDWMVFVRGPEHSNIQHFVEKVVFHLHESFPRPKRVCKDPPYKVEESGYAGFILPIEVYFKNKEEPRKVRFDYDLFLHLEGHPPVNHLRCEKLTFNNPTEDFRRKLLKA

Sequence of Sirt3 (Q9NTG7 2-399): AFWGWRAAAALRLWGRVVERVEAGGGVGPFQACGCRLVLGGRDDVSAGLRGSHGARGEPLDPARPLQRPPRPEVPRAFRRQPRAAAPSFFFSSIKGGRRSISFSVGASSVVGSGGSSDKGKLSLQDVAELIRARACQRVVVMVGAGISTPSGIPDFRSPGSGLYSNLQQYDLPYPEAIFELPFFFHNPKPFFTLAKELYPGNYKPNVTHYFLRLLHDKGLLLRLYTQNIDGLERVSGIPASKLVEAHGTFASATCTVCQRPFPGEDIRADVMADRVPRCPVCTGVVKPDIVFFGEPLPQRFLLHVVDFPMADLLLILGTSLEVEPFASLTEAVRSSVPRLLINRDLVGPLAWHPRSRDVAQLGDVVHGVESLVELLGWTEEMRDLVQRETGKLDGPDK

Molecule: Sirt3 (from UniProt Q9NTG7)
Kd [1]: 25 µM

Molecule: TAF1 BD2 (from UniProt P21675)
Kd [2]: 100 µM
Kd [3]: 50 µM

Molecule: TKQTAR-K-SSGGKA [unmodified H3 peptide]
changes of protein backbone amide resonances / binding [4]: did not cause any protein resonance changes

binding result [5]: binds
Molecule: ATKAARK(Ac)SAPATG [histone H3K27ac peptide (residues 21–33)]

binding result [5]: binds
Molecule: ATKAARK(Crotonyl(E))SAPATG [histone H3K27cr peptide (residues 21–33)]
